Laboratory results published in patent publication US12269859B2, “Synthetic immune receptors and methods of use thereof” (Angeles Therapeutics, Inc., priority 2016, dated 2025).

Tested on: target antigen-expressing cell line
Experiment: Jurkat NFAT-GFP assay, coculture with target cell lines expressing the respective target antigen (summary Table 10A)
Assay type: cell-based, human
Set-up: key: The signs +/−, +, 2+ etc. after the name of the cell lines indicate the relative degree of positivity on the Jurkat-NFAT-GFP assay as measured by the % GFP positive cells; +: relative degree of positivity on the Jurkat-NFAT-GFP assay as measured by the % GFP positive cells; 2+: relative degree of positivity on the Jurkat-NFAT-GFP assay as measured by the % GFP positive cells
Conditions: relative % GFP positive cells; for NFAT-GFP ASSAY Positive Cell lines: RAJI: SIR-expressing Jurkat-NFAT-GFP cells cocultured with RAJI
Summary of the method: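 Jurkat cells carrying an NFAT-site IL-2 promoter driving GFP were lentivirally transduced with SIRs, puromycin-selected, then cocultured with antigen-expressing target cells at E:T about 1:2 for about 4–18 hours. GFP induction was read by flow cytometry as % GFP-positive cells versus parental Jurkat-NFAT-GFP.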

B1: 062717-P06 (protein)
chain: MALPVTALLLPLALLLHAARPLEGKPIPNPLLGLDSTGSGEDLKNVFPPEVAVFEPSKAEIAHTQKATLVCLATGFYPDHVELSWWVNGKEVHSGVCTDPQPLKEQPALNDSRYCLSSRLRVSATFWQNPRNHFRCQVQFYGLSENDEWTQDRAKPVTQIVSAEAWGRADCGITSASYHQGVLSATILYEILLGKATLYAVLVSALVLMAMVKRKDSRGRAKRSGSGATNFSLLKQAGDVEENPGPTSMALPVTALLLPLALLLHAARPEVQLQQSGPGLVKPSQTLSLTCAISGDSVSSNSAAWNWIRQSPSRGLEWLGRTYYRSKWYSDYAVSVKSRITINPDTSKNQFSLQLNSVTPEDTAVYYCARDPYDFWSGYPDAFDIWGQGTMVTVSSGGGGSGGGGSGGGGSQSALTQPASVSGSPGQSITISCTGTSSDVGGYNYVSWYQQHPGKAPKVIISEVNNRPSGVSHRFSGSKSGNTASLTISGLQAEDEADYFCSSYTSGRTLYVFGTGSKVTVLGTREQKLISEEDGSGIQNPDPAVYQLRDSKSSDKSVCLFTDFDSQTNVSQSKDSDVYITDKCVLDMRSMDFKSNSAVAWSNKSDFACANAFNNSIIPEDTFFPSSDVPCDVKLVEKSFETDTNLNFQNLSVIGFRILLLKVAGFNLLMTLRLWSSRAKRSGSGVKQTLNFDLLKLAGDVESNPGPSRGHMTEYKPTVRLATRDDVPRAVRTLAAAFADYPATRHTVDPDRHIERVTELQELFLTRVGLDIGKVWVADDGAAVAVWTTPESVEAGAVFAEIGPRMAELSGSRLAAQQQMEGLLAPHRPKEPAWFLATVGVSPDHQGKGLGSAVVLPGVEAAERAGVPAFLETSAPRNLPFYERLGFTVTADVEVPEGPRTWCMTRKPGA
  NFAT-GFP ASSAY Positive Cell lines: RAJI: RAJI (+/−)

B2: 062717-Q04 (protein)
chain: MALPVTALLLPLALLLHAARPLEGKPIPNPLLGLDSTGSGEDLKNVFPPEVAVFEPSKAEIAHTQKATLVCLATGFYPDHVELSWWVNGKEVHSGVCTDPQPLKEQPALNDSRYCLSSRLRVSATFWQNPRNHFRCQVQFYGLSENDEWTQDRAKPVTQIVSAEAWGRADCGITSASYHQGVLSATILYEILLGKATLYAVLVSALVLMAMVKRKDSRGRAKRSGSGATNFSLLKQAGDVEENPGPTSMALPVTALLLPLALLLHAARPQSALTQPASASGSPGQSVTISCTGTSSDVGGYNYVSWYQQHPGKAPKLMIYDVSNRPSGVSNRFSGSKSGNTASLTISGLQAEDEADYYCSSYTSSSTLYVFGTGTQLTVLGGGGSGGGGSGGGGSEVQLQQSGPGLVKPSQTLSLTCAISGDSMLSNSDTWNWIRQSPSRGLEWLGRTYHRSTWYDDYASSVRGRVSINVDTSKNQYSLQLNAVTPEDTGVYYCARVRLQDGNSWSDAFDVWGQGTMVTVSSTREQKLISEEDGSGIQNPDPAVYQLRDSKSSDKSVCLFTDFDSQTNVSQSKDSDVYITDKCVLDMRSMDFKSNSAVAWSNKSDFACANAFNNSIIPEDTFFPSSDVPCDVKLVEKSFETDTNLNFQNLSVIGFRILLLKVAGFNLLMTLRLWSSRAKRSGSGVKQTLNFDLLKLAGDVESNPGPSRGHMTEYKPTVRLATRDDVPRAVRTLAAAFADYPATRHTVDPDRHIERVTELQELFLTRVGLDIGKVWVADDGAAVAVWTTPESVEAGAVFAEIGPRMAELSGSRLAAQQQMEGLLAPHRPKEPAWFLATVGVSPDHQGKGLGSAVVLPGVEAAERAGVPAFLETSAPRNLPFYERLGFTVTADVEVPEGPRTWCMTRKPGA
  NFAT-GFP ASSAY Positive Cell lines: RAJI: RAJI (+)

B3: 062717-O02 (protein)
chain: MALPVTALLLPLALLLHAARPLEGKPIPNPLLGLDSTGSGEDLKNVFPPEVAVFEPSKAEIAHTQKATLVCLATGFYPDHVELSWWVNGKEVHSGVCTDPQPLKEQPALNDSRYCLSSRLRVSATFWQNPRNHFRCQVQFYGLSENDEWTQDRAKPVTQIVSAEAWGRADCGITSASYHQGVLSATILYEILLGKATLYAVLVSALVLMAMVKRKDSRGRAKRSGSGATNFSLLKQAGDVEENPGPTSMALPVTALLLPLALLLHAARPEVQLQQSGPGLVKPSQTLSLTCAISGDSVLSNSDTWNWIRQSPSRGLEWLGRTYHRSTWYDDYASSVRGRVSINVDTSKNQYSLQLNAVTPEDTGVYYCARDRLQDGNSWSDAFDVWGQGTMVTVSSGGGGSGGGGSGGGGSQSALTQPASVSGSPGQSITISCTGTSSDVGGYNYVSWYQQHPGKAPKLMIYDVSNRPSGVSNRFSGSKSGNTASLTISGLQAEDEADYYCSSYTSSSTLVYVFGTGTKVTVLTREQKLISEEDGSGIQNPDPAVYQLRDSKSSDKSVCLFTDFDSQTNVSQSKDSDVYITDKCVLDMRSMDFKSNSAVAWSNKSDFACANAFNNSIIPEDTFFPSSDVPCDVKLVEKSFETDTNLNFQNLSVIGFRILLLKVAGFNLLMTLRLWSSRAKRSGSGVKQTLNFDLLKLAGDVESNPGPSRGHMTEYKPTVRLATRDDVPRAVRTLAAAFADYPATRHTVDPDRHIERVTELQELFLTRVGLDIGKVWVADDGAAVAVWTTPESVEAGAVFAEIGPRMAELSGSRLAAQQQMEGLLAPHRPKEPAWFLATVGVSPDHQGKGLGSAVVLPGVEAAERAGVPAFLETSAPRNLPFYERLGFTVTADVEVPEGPRTWCMTRKPGA
  NFAT-GFP ASSAY Positive Cell lines: RAJI: RAJI (+/−)

B4: 083116-D03 (protein)
chain: MALPVTALLLPLALLLHAARPLEGKPIPNPLLGLDSTGSGEDLKNVFPPEVAVFEPSKAEIAHTQKATLVCLATGFYPDHVELSWWVNGKEVHSGVCTDPQPLKEQPALNDSRYCLSSRLRVSATFWQNPRNHFRCQVQFYGLSENDEWTQDRAKPVTQIVSAEAWGRADCGITSASYHQGVLSATILYEILLGKATLYAVLVSALVLMAMVKRKDSRGRAKRSGSGATNFSLLKQAGDVEENPGPTSMALPVTALLLPLALLLHAARPDIQMTQSPATIENTSLSASVGDRVTITCRASQGISSWLTWYQQKPEKAPKSLIYAASSLQSGVPSRFSGSGSGTDFTLTISSLQPEDFATYYCQQYDSYPITFGQGTRLEIKGGGGSGGGGSGGGGSQVQLQQWGAGLLKPSETLSLTCAVYGGSFSAYYWSWIRQPPGKGLEWIGDINHGGGTNYNPSLKSRVTISVDTSKNQFSLKLNSVTAADTAVYYCASLTAYWGQGSLVTVSSTREQKLISEEDLGSGTPFPSLAPPIMLLVDGKQQMVVVCLVLDVAPPGLDSPIWFSAGNGSALDAFTYGPSPATDGTWTNLAHLSLPSEELASWEPLVCHTGPGAEGHSRSTQPMHLSGEASTARTCPQEPLRGTPGGALWLGVLRLLLFKLLLFDLLLTCSCLCDPAGPLPSPATTTRLRALGSHRLHPATETGGREATSSPRPQPRDRRWGDTPPGRKPGSPVRAKRSGSGVKQTLNFDLLKLAGDVESNPGPSRSRGHMTEYKPTVRLATRDDVPRAVRTLAAAFADYPATRHTVDPDRHIERVTELQELFLTRVGLDIGKVWVADDGAAVAVWTTPESVEAGAVFAEIGPRMAELSGSRLAAQQQMEGLLAPHRPKEPAWFLATVGVSPDHQGKGLGSAVVLPGVEAAERAGVPAFLETSAPRNLPFYERLGFTVTADVEVPEGPRTWCMTRKPGA
modifications: Polynucleotide encoding a Synthetic Immune Receptor (SIR)
SIR-expressing Jurkat-NFAT-GFP cells cocultured with L428
  NFAT-GFP ASSAY Positive Cell lines: L428: L428 (+/−)
